Assay results: article PMC13534476, “The Arabidopsis SPFH protein HIR2 modulates receptor signaling and plasma membrane organization” (The EMBO Journal, 2026)
Where “and” joins values, the source holds several entries; their conditions need not be identical. Equal entries are not always repeated.

Biological target: the molecule itself
Experiment: SDS-PAGE with immunoblot (denaturing); denatured samples (SDS loading buffer, 5 min 95 °C) of the extracts made for BN-PAGE

B1: HIR2-HA (natural protein, Arabidopsis thaliana, UniProt Q9SRH6 1-285, looked up)
chain: MGNLFCCVLVKQSDVAVKERFGKFQKVLNPGLQFVPWVIGDYVAGTLTLRLQQLDVQCETKTKDNVFVTVVASIQYRVLADKASDAFYRLSNPTTQIKAYVFDVIRACVPKLNLDDVFEQKNEIAKSVEEELDKAMTAYGYEILQTLIIDIEPDQQVKRAMNEINAAARMRVAASEKAEAEKIIQIKRAEGEAESKYLSGLGIARQRQAIVDGLRDSVLGFAGNVPGTSAKDVLDMVMMTQYFDTMRDIGATSKSSAVFIPHGPGAVSDVAAQIRNGLLQANNAS
notes: HIR2, Arabidopsis thaliana; also called HA-tagged HIR2; source: Nicotiana benthamiana leaves, transient expression, total protein extract
stoichiometry N: 2 and 4 and 6
